Reference: the supplement of paper PMC10567573
± gives the standard deviation.

Test: protein stability index of a GFP-peptide fusion (GPS, HEK-293T) (PSI 1-6); higher = more stable
[1] = treatment: DMSO, c terminus: a fixed tail appended
[2] = treatment: MLN4924 1 uM, 8 h, c terminus: a fixed tail appended
[3] = treatment: DMSO, c terminus: native
[4] = treatment: MLN4924 1 uM, 8 h, c terminus: native
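Note: 24-mer peptide tiles fused after GFP, lentivirally expressed, FACS-sorted into six equal bins by GFP/DsRed ratio, decoded by Illumina sequencing, PSI is the read-weighted mean bin number.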

Sequence	protein stability index [1]	protein stability index [2]	protein stability index [3]	protein stability index [4]
VNVGTTALWKHLKSMHREELEKSG [ZBED2]	3.65 ± 0.24	3.48 ± 0.23		
VPIPTVNQYLYFLFAPTLIYRDSY [SOAT1]	3.32 ± 0.3	3.24 ± 0.24		
VQSYMEHYCNSSTDRRVLLMFLDI [SPACA9]	2.78 ± 0.38	2.71 ± 0.56		
VRKREAPAPEAESKQTEKDPGVQE [EFHC1]	5.47 ± 0.27	5.61 ± 0.34		
VSLVTAELSKDAQASAAPAAPLPE [SLC29A1]	4.44 ± 0.18	4.47 ± 0.16		
VTGETRVLSSTTLLPRQPLPLGIK [PALM]	3.66 ± 0.35	3.63 ± 0.22		
VTLLVRGVCYSESQSSASQPRLSY [CLCN6]	2.83 ± 0.41	2.29 ± 0.6		
VTRQPRNLQDLCRIKIRQCIGLQN [ASB7]	3.4 ± 0.56	3.35 ± 0.39		
VVGAKKIYAHRVILSACSPYFRAM [KLHL20]	2.78 ± 0.26	2.41 ± 0.84		
VYYIFERLCAPLFRNIKQEPFSAR [SOAT1]	2.5 ± 0.71	2.61 ± 0.5		
WALGVCNNSWIRKNSTMVNSEDIF [TRIM43]	2.03 ± 0.52	2.12 ± 0.31		
WATIEGLVELLQPFKQVAEMLSAS [ZBED1]	3.01 ± 0.76	2.94 ± 0.8		
WDLNMENRPIETYQVHDYLRSKLC [PPP2R2B]	2.65 ± 0.34	2.72 ± 0.29		
WEEEKALWVEERALLEGEKALWED [CCDC70]	5.07 ± 0.28	5.22 ± 0.13		
WEHSAPQRLPRSAPPGSLVTKVTA [PCDHGC5]	3.84 ± 0.092	4.02 ± 0.18		
WIGKQLPTPVGAVQQDPALSSNRE [CSNK1G3]	4.11 ± 0.19	4.48 ± 0.26		
WKDIIHNPQALSPQFTGILQLLQS [INTS3]	2.11 ± 0.34	2.14 ± 0.23		
WKVRYDTFIVSCKFSPDGKYVVSG [WDR88]	2.31 ± 0.45	2.49 ± 0.14		
WLDNPERWNKVKMVVSREEVELAY [SEPHS2]	2.87 ± 0.31	2.46 ± 0.31		
WLHCVCVVGFDLELGQAVEVIYPQ [DENND6A]	2.66 ± 0.95	2.46 ± 0.085		
WQVLCMLSLCCWGWVSGQLRYSVV [PCDHGC5]	3.24 ± 0.69	3.04 ± 0.35		
WRYVSSLPQPLAAHAGAVHNGKIY [KLHL14]	2.51 ± 0.26	2.73 ± 0.078		

Sequence	protein stability index [1]	protein stability index [2]	protein stability index [3]	protein stability index [4]
YAKLAAVAVFFIMLIVYVRFWWL [SEC22B]			2.52 ± 0.081	2.63 ± 0.075
YAKVKEFIVDILQFLDIGPDVTRV [MATN2]	3.84 ± 0.32	3.81 ± 0.084		
YDLDKIIELNGGQPPLTYKRFQTL [CRY1]	2.69 ± 0.38	2.77 ± 0.32		
YDPKENKWTRVASMSTRRLGVAVA [KLHL20]	2.29 ± 0.27	2.38 ± 0.28		
YEENEGAGPYLLNGSYLELSSDRV [ADAMTSL2]	3.88 ± 0.33	4.07 ± 0.46		
YEKFKLYLTIILILISFTCRFLLN [TMEM120A]	3.05 ± 0.21	2.91 ± 0.39		
YGICREPVGLVMEYMETGSLEKLL [RIPK4]	2.29 ± 0.26	2.22 ± 0.4		
YGRIVEVLLMKDRETNKSRGFAFV [RBMX]	2.9 ± 0.44	2.48 ± 0.59		
YGYVYFRQVRDKTLKRGYFQKSLV [DENND6A]	2.56 ± 0.46	2.1 ± 0.16		
YINLLNYMDRFTVAGVLPDIEQFF [SPNS1]	2.93 ± 0.63	2.84 ± 0.64		
YKIVKPLWTSFIQSVSYSKLLSVI [P2RY14]	2.06 ± 0.16	2.36 ± 0.39		
YKMFASRRKQRYWPFSMDCTGTEA [LOXL2]	2.3 ± 0.27	2.15 ± 0.33		
YLSKTYCVDATRETNRLGRLINHS [KMT5A]	2.35 ± 0.046	2.62 ± 0.25		
YNRGEHPIFVNSPTLDAPGGRALV [SMAD6]	3.13 ± 0.35	3.25 ± 0.34		
YNSPQFKKTMSTFHNLVSLNLNYN [FBXO39]	2.25 ± 0.32	2.12 ± 0.4		
YPHCTGISQQDPESDSQGQGNGLF [ZC2HC1C]	3.82 ± 0.23	4.43 ± 0.48		
YQNSIDDRLLVERIFAQYMVPHNL [PDS5B]	2.21 ± 0.55	2.46 ± 0.79		
YSALREESAKDWETSPLPGMLAPA [PPFIA4]	4.26 ± 0.23	4.04 ± 0.21		
YSLRNKEFKSALCKIVRRTISLL [OR10K2]			2.96 ± 0.64	2.93 ± 0.21
YVQWSLPFIVFGATGLTSGLLSLL [SLC22A15]	3.27 ± 0.45	2.94 ± 0.68		
YVYKPVMNQTCCPQYTIRCRPLQF [ATE1]	2.65 ± 0.64	2.3 ± 0.33		
